Source: publication PMC7158967, “Comparative evaluation of ^68Ga-labelled TATEs: the impact of chelators on imaging” (EJNMMI Research, 2020)
Read-outs that look alike come from different tables or passages of the source.

Assays:
[1] = Biodistribution in AR42J tumour-bearing nude mice; details: mouse, in vivo; for tissue to tissue ratio at 0.25 h / tissue to tissue ratio at 0.5 h / tissue to tissue ratio at 1 h / tissue to tissue ratio at 2 h: both sexes, nude, iv, 0.1 mCi, total radioactivity
Experimental: (§1) Tumour cells were subcutaneously injected into the left forelimb of each nude mouse. Biodistribution and imaging studies were conducted when the tumour volume reached at least 1.0 × 1.0 × 1.0 cm^3.

[2] = type: in vitro ADME; details: human
Experimental: In vitro serum binding studies for both ^68Ga-labelled NOTA-TATE and DOTA-TATE were carried out by following a generalized procedure summarized below. One millilitre of fresh anticoagulated (heparinized) human plasma was prepared. Freshly labelled compound (3.7 MBq, 0.1 mCi) was added to three centrifuge tubes, each containing 0.1 mL of human plasma. After incubation at 37 °C for 2 h, 1 mL of ice-cold methanol was added to each tube. The mixtures were separated by centrifugation (5 min, 3000 rpm) to collect the supernatant, which was repeated three times. A gamma counter was then used to measure the radioactivity of the supernatant (A) and the precipitate (B) in counts per minute (CPM); the plasma-protein binding rate was calculated as PPB = B/(A + B)100%, and the average of three tubes was recorded.

[3] = Micro-PET/CT imaging of AR42J tumour-bearing nude mice; details: both sexes, mouse, in vivo, iv, 2.96 MBq, total radioactivity, nude mice bearing AR42J tumours, read-out: SUVmax, 3D micro-PET/CT
Experimental: as §1
Six (3 female and 3 male) mice with AR42J tumour xenografts (15–20 g) were used in the imaging study. All tumour-bearing mice were anaesthetized by intranasal inhalation of isoflurane. […] Images were acquired and reconstructed using micro-PET/CT at 30 min and 2 h after intravenous injection.

healthy volunteers = assay: clinical; details: human, in vivo
Experimental: (§2) Twenty-two healthy volunteers gave informed consent and agreed to participate in the study. […] Each patient was injected with an average activity of 1.9 MBq/kg. The timing of image acquisition ranged from 30 to 45 min after injection (3 min/bed position). The PET image was attenuated and then reconstructed using the iterative reconstruction algorithm implemented.

clinical = details: human, in vivo, total radioactivity
Experimental: as §2

KM mice = details: mouse, in vivo
Experimental: Thirty KM mice were randomly divided into a control group, a ^68Ga- NOTA-TATE low-dose group (100 μCi) and a high-dose group (1 mCi). Each group contained 10 mice, half female and half male. The dose of the appropriate compound was administered through the tail vein at an administration volume of 0.2 mL. The animal blood routine, body weight and animal feed consumption were performed before administration and on days 4, 7, 14, 21 and 28 after administration. At the end of the observation period, the surviving mice were dissected, and histopathological examination was performed on the myocardium, liver, spleen, lung, kidney, stomach, intestine, gonad, bone, muscle and brain of each mouse.

## C[C@@H](O)[C@@H]1NC(=O)[C@H](CCCCN)NC(=O)[C@@H](Cc2c[nH]c3ccccc23)NC(=O)[C@H](Cc2ccccc2)NC(=O)[C@@H](NC(=O)[C@@H](Cc2ccccc2)NC(=O)CN2CCN(CC(=O)O)CCN(CC(=O)O)CC2)CSSC[C@@H](C(=O)N[C@H](CO)[C@@H](C)O)NC1=O [^68Ga-NOTA-TATE, metal not drawn]
[1]
  tissue to tissue ratio at 0.25 h: 12.5
  tissue to tissue ratio at 0.5 h: 8.45
  tissue to tissue ratio at 1 h: 39.5
  tissue to tissue ratio at 2 h: 44.3
[1]; 15 min postinjection, read-out: Tumour/kidney ratio
  tissue to tissue ratio at 0.25 h: 0.18
[1]; 0.5 h postinjection, read-out: Tumour/kidney ratio
  tissue to tissue ratio at 0.5 h: 0.94
[1]; 1 h postinjection, read-out: Tumour/kidney ratio
  tissue to tissue ratio at 1 h: 0.81
[1]; 2 h postinjection, read-out: Tumour/kidney ratio
  tissue to tissue ratio at 2 h: 0.79
[1]; %ID/g Blood
  tissue uptake at 0.25 h: 3.25 ± 1.06 %ID/g
  tissue uptake at 0.5 h: 1.01 ± 0.42 %ID/g
  tissue uptake at 1 h: 0.58 ± 0.24 %ID/g
  tissue uptake at 2 h: 0.07 ± 0.06 %ID/g
[1]; %ID/g Gallbladder
  tissue uptake at 0.25 h: 3.62 ± 1.94 %ID/g
  tissue uptake at 0.5 h: 6.21 ± 2.69 %ID/g
  tissue uptake at 1 h: 1.83 ± 0.84 %ID/g
  tissue uptake at 2 h: 1.61 ± 0.67 %ID/g
[1]; %ID/g Intestines
  tissue uptake at 0.25 h: 0.07 ± 0.04 %ID/g
  tissue uptake at 0.5 h: 0.03 ± 0.02 %ID/g
  tissue uptake at 1 h: 0.21 ± 0.09 %ID/g
  tissue uptake at 2 h: 0.13 ± 0.07 %ID/g
[1]; %ID/g Kidney
  tissue uptake at 0.25 h: 17.1 ± 6.39 %ID/g
  tissue uptake at 0.5 h: 4.23 ± 2.73 %ID/g
  tissue uptake at 1 h: 3.79 ± 2.16 %ID/g
  tissue uptake at 2 h: 1.69 ± 1.02 %ID/g
[1]; %ID/g Liver
  tissue uptake at 0.25 h: 1.19 ± 0.54 %ID/g
  tissue uptake at 0.5 h: 0.43 ± 0.23 %ID/g
  tissue uptake at 1 h: 0.07 ± 0.04 %ID/g
  tissue uptake at 2 h: 0.04 ± 0.02 %ID/g
[1]; %ID/g Lungs
  tissue uptake at 0.25 h: 3.64 ± 1.56 %ID/g
  tissue uptake at 0.5 h: 0.21 ± 0.17 %ID/g
  tissue uptake at 1 h: 0.64 ± 0.41 %ID/g
  tissue uptake at 2 h: 0.48 ± 0.21 %ID/g
[1]; %ID/g Muscle
  tissue uptake at 0.25 h: 0.26 ± 0.03 %ID/g
  tissue uptake at 0.5 h: 0.47 ± 0.26 %ID/g
  tissue uptake at 1 h: 0.08 ± 0.06 %ID/g
  tissue uptake at 2 h: 0.03 ± 0.01 %ID/g
[1]; %ID/g Skeleton
  tissue uptake at 0.25 h: 2.14 ± 1.41 %ID/g
  tissue uptake at 0.5 h: 1.46 ± 0.37 %ID/g
  tissue uptake at 1 h: 0.85 ± 0.38 %ID/g
  tissue uptake at 2 h: 0.13 ± 0.07 %ID/g
[1]; %ID/g Spleen
  tissue uptake at 0.25 h: 0.19 ± 0.08 %ID/g
  tissue uptake at 0.5 h: 0.13 ± 0.11 %ID/g
  tissue uptake at 1 h: 0.12 ± 0.06 %ID/g
  tissue uptake at 2 h: 0.03 ± 0.01 %ID/g
[1]; %ID/g Stomach
  tissue uptake at 0.25 h: 0.19 ± 0.13 %ID/g
  tissue uptake at 0.5 h: 3.55 ± 1.83 %ID/g
  tissue uptake at 1 h: 1.61 ± 1.03 %ID/g
  tissue uptake at 2 h: 1.11 ± 0.21 %ID/g
[1]; %ID/g Tumour
  tissue uptake at 0.25 h: 3.24 ± 1.03 %ID/g
  tissue uptake at 0.5 h: 3.97 ± 2.24 %ID/g
  tissue uptake at 1 h: 3.16 ± 1.92 %ID/g
  tissue uptake at 2 h: 1.33 ± 0.96 %ID/g
[2]
  fraction unbound at 2 h: 0.879
[3]; 30 min after i.v. injection
  SUV at 0.5 h: 3.02 SUV
[3]; 120 min after i.v. injection
  SUV at 2 h: 1.64 SUV
Healthy volunteers
  SUVmax Adrenals, range: 5.7~15.6
  SUVmax Blood pool, range: 0.9~1.6
  SUVmax Bone marrow, range: 0.7~1.1
  SUVmax Breast, range: 0.5~1.1
  SUVmax Kidneys, range: 6.2~20.3
  SUVmax Large bowel, range: 1.0~2.4
  SUVmax Liver, range: 1.3~6.3
  SUVmax Lungs, range: 0.3~0.9
  SUVmax Lymph nodes, range: 0.8~1.4
  SUVmax Palatine tonsil, range: 0.6~1.8
  SUVmax Pancreas, range: 2.0~5.5
  SUVmax Parotid gland, range: 0.7~1.3
  SUVmax Pituitary gland, range: 0.7~2.3
  SUVmax Small bowel, range: 1.4~2.5
  SUVmax Spleen, range: 10.7~17.1
  SUVmax Stomach, range: 1.6~4.9
  SUVmax Submandibular, range: 0.7~1.4
  SUVmax Thymus, range: 0.6~1.4
  SUVmax Thyroid, range: 1.2~2.5
  radioactivity in the gallbladder: not seen
  side effects after administration: no apparent side effects
  uptake in the brain: No apparent
clinical; both sexes, 1.9 MBq/kg, SUVmax Adrenals, average
  SUV: 10.7 SUV
clinical; both sexes, 1.9 MBq/kg, SUVmax Blood pool, average
  SUV: 1.4 SUV
clinical; both sexes, 1.9 MBq/kg, SUVmax Bone marrow, average
  SUV: 0.9 SUV
clinical; both sexes, 1.9 MBq/kg, SUVmax Kidneys, average
  SUV: 14.1 SUV
clinical; both sexes, 1.9 MBq/kg, SUVmax Large bowel, average
  SUV: 1.5 SUV
clinical; both sexes, 1.9 MBq/kg, SUVmax Liver, average
  SUV: 4.2 SUV
clinical; both sexes, 1.9 MBq/kg, SUVmax Lungs, average
  SUV: 0.6 SUV
clinical; both sexes, 1.9 MBq/kg, SUVmax Lymph nodes, average
  SUV: 1.2 SUV
clinical; both sexes, 1.9 MBq/kg, SUVmax Palatine tonsil, average
  SUV: 1.3 SUV
clinical; both sexes, 1.9 MBq/kg, SUVmax Pancreas, average
  SUV: 3.7 SUV
clinical; both sexes, 1.9 MBq/kg, SUVmax Parotid gland, average
  SUV: 0.9 SUV
clinical; both sexes, 1.9 MBq/kg, SUVmax Pituitary gland, average
  SUV: 1.5 SUV
clinical; both sexes, 1.9 MBq/kg, SUVmax Small bowel, average
  SUV: 1.8 SUV
clinical; both sexes, 1.9 MBq/kg, SUVmax Spleen, average
  SUV: 14.6 SUV
clinical; both sexes, 1.9 MBq/kg, SUVmax Stomach, average
  SUV: 2.4 SUV
clinical; both sexes, 1.9 MBq/kg, SUVmax Submandibular, average
  SUV: 1.2 SUV
clinical; both sexes, 1.9 MBq/kg, SUVmax Thymus, average
  SUV: 1.1 SUV
clinical; both sexes, 1.9 MBq/kg, SUVmax Thyroid, average
  SUV: 1.7 SUV
clinical; both sexes, iv, 1.9 MBq/kg, SUVmax Breast, average
  SUV: 0.7 SUV
clinical; iv, 1.86 mCi, SUVmax kidney, single volunteer
  SUV: 12.5 SUV
clinical; iv, 1.86 mCi, SUVmax liver, single volunteer
  SUV: 1.4 SUV
clinical; iv, 1.86 mCi, SUVmax pituitary, single volunteer
  SUV: 1.9 SUV
clinical; iv, 1.86 mCi, SUVmax spleen, single volunteer
  SUV: 6.8 SUV
clinical; iv, 3.83 mCi, SUVmax kidney, single volunteer
  SUV: 6.2 SUV
clinical; iv, 3.83 mCi, SUVmax liver, single volunteer
  SUV: 1.3 SUV
clinical; iv, 3.83 mCi, SUVmax pituitary, single volunteer
  SUV: 0.7 SUV
clinical; iv, 3.83 mCi, SUVmax spleen, single volunteer
  SUV: 3.9 SUV
KM mice
  acute animal toxicity, overall finding: no apparent toxicity
  histopathological examination: no toxic pathological changes
